From patent US9687529B2, “Method of controlling coagulation” (Duke University, priority 2011, dated 2017)
Values joined by “and” are separate entries in the source; they are usually repeats but may differ in a detail not shown here. Equal values may be shown once. Read-outs that look alike come from different tables or passages of the source. Strand notation (5' to 3'): a small letter for the sugar, then the base; units joined by * are phosphorothioate-linked, units joined directly phosphodiester-linked; [ ] holds rarer units or linkages, { } end groups; capitals alone tell only the bases. r = 2'-OH (RNA); f = 2'-fluoro

Key:
[1] = system: clot formation in plasma; settings: cited from earlier work
[2] = molecular target: thrombin (Homo sapiens, UniProt P00734); settings: cited from earlier work
[3] = cited from earlier work
[4] = patient with renal failure; cited from earlier work
[5] = system: clot formation in whole blood; test: Antidote reversal TEG of 11F7T+R9D-14T anticoagulation; format: cell-based, human; settings: blood anticoagulated 1 hour with 11F7T 0.5 μM+R9D-14T 5 μM; protamine 22 μM (4-fold molar excess); average
Procedure: For the antidote reversal TEGs, whole blood was anticoagulated with a combination of the FXa (0.5 μM) and prothrombin (5 μM) aptamers for 1 hour as described, antidote (10 μL) was added, and the assay was continued until a stable clot was formed. For complete antidote reversal at one hour a 4-fold molar excess of protamine (22 μM) was added, 50 μg of CDP was added, or a 2-fold molar excess of the R9D-14T oligonucleotide (10 μM) in combination with a 3-fold molar excess of the 11F7T antidote oligonucleotide (1.5 μM) was added.
Whole blood was anticoagulated with 11F7T+R9D-14T at a dose that prevents clot formation for greater than three hours, and various antidotes were subsequently added after one hour to assess anticoagulation reversal and resulting clot formation. Both protamine and the β-cyclodextrin containing polymer (CDP) were tested for their ability to function as a universal antidote by simultaneously reversing both aptamers in combination (Oney et al, Nat Med 15:1224-8 (2009)). […] Thus, although the 11F7T+R9D-14T aptamer combination is an extremely potent anticoagulant cocktail that can mimic UFH anticoagulation in an ex vivo oxygenator circuit, the aptamer combination can be rapidly reversed with either a universal antidote or a combination of oligonucleotide antidotes.

[6] = system: clot formation in normal human platelet poor plasma; test: Prothrombin time (PT) plasma clotting assay; format: biochemical
Procedure: The activated partial thromboplastin time (aPTT) and prothrombin time (PT) assays were performed on a model ST4 mechanical coagulometer (Diagnostica Stago, Parsippany, N.J.) as previously described (Bompiani et al, J Thromb Haemost 10:870-80 (2012)). For the aPTT, 50 μL of normal human platelet poor plasma (PPP) was incubated with 50 μL TriniClot aPTT S (Trinity BioTech, Bray, Co Wicklow, Ireland) at 37° C. for 5 min. Aptamer(s) (5 μL) was added, and the mixture was incubated at 37° C. for another 5 min, and CaCl2 (50 μL) was added to initiate the assay. For the PT, 50 μL of normal human PPP was incubated with 5 μL of aptamer(s) at 37° C. for 5 min. TriniClot PT Excel reagent (Trinity BioTech, Bray, Co Wicklow, Ireland) (100 μL) was added to initiate the reaction. Assays with a combination of two aptamers contain an equimolar concentration of each individual aptamer, and the data shown are the total RNA concentration.
To compare the anticoagulant effect of these four aptamers, dose-response titrations were performed in several clinical plasma-based clotting assays. The activated partial thromboplastin time (aPTT) and prothrombin time (PT) are plasma clotting assays that are clinically used to probe for abnormalities in the intrinsic and extrinsic coagulation pathways, respectively (Van Cott et al, editors. Jacobs & DeMott laboratory test handbook. 5th ed. Hudson Ohio: Lexi-Comp. p. 327-58 (2001)). These relatively simple assays measure the time until clot formation in platelet poor plasma (PPP) in response to either robust tissue factor (TF), or contact stimulation via negatively charged surfaces (i.e., silica, kaolin, celite). […] At high concentrations, the prothrombin aptamer (R9D-14T) was the most robust anticoagulant and inhibited greater than 96% of prothrombin activity in the aPTT and PT. At 4 μM, R9D-14T increased the aPTT clotting time approximately 18-fold and the PT clotting time greater than 80-fold (exceeded the assay limit of 999 sec). […] At the same dose, the FIXa aptamer (9.3T) inhibited greater than 99% of FIX activity and increased the aPTT clotting time approximately 5.5-fold, while the FVIIa aptamer (7S-1) increased the PT clotting time 3-fold and inhibited greater than 99% of FVII activity (FIGS. 20A and 20B).

[7] = system: thrombin generation in normal human platelet poor plasma; test: Calibrated automated thrombography (CAT); format: biochemical; settings: TF 5 ρM
Procedure: Normal human platelet poor plasma (80 μL) was mixed with aptamer(s) (10 μL) in an Immunolon 2HB U Bottom Mictrotiter 96-well plate (Thermo Labsystems, Franklin, Mass.) and incubated at 37° C. for 5 min. PPP reagent (Diagnostica Stago, Parsippany, N.J.) (either 1 ρM or 5 ρM TF, 20 μL, Diagnostica Stago) was added, and the mixture was incubated at 37° C. for another 5 min. FluCa (Diagnostica Stago) (10 μL) was added to initiate the assay and thrombin generation was measured for 60 minutes at 37° C. with a Fluoroskan Ascent fluorometer (ThermoLabsystem, Helsinki, Finland) according to the manufacturer's instructions. The amount of thrombin generated was quantified by comparison to an assay with thrombin calibrator reagent (Diagnostica Stago) that has a known activity toward the fluorogenic substrate. The lag time, peak amount of thrombin generated, and endogenous thrombin potential (ETP) were automatically calculated by the Thrombinoscope software (Thrombinoscope BV, the Netherlands).
Thrombin is the final protease formed in the coagulation cascade, and the rate of thrombin generation and the total amount of thrombin generated is associated with blood clot formation and stability (Wolberg, Blood Rev 21:131-42 (2007)). To gain more information about the impact of aptamer anticoagulation on the kinetics of thrombin generation, the individual aptamers were analyzed with calibrated automated thrombography (CAT). The CAT assay measures real-time thrombin generation in plasma by monitoring cleavage of a thrombin-specific fluorogenic substrate in response to TF stimulation (Heruker et al, Pathophysiol Haemost Thromb 33: 4-15 (2003)). The parameters of thrombin generation analyzed include: the lag time (time until thrombin generation begins), the peak (the maximal amount of thrombin generated at a given time) and the endogenous thrombin potential (ETP, the total amount of thrombin generated). Similar to the aPTT and PT clotting assays, all of the individual aptamers dose-dependently impacted the various parameters of thrombin generation (FIG. 21 and Table 1). […] 9.3T minorly impacted all parameters of thrombin generation with the high TF reagent; however, because high concentrations of TF may bypass FIX activity by directly generating FXa, the manufacturer recommends low concentrations of TF for analyzing FIX deficient (i.e, Hemophilia B) plasma in the CAT.

[8] = system: clot formation in whole blood; test: Thromboelastography (TEG), whole blood stimulated with tissue factor; format: cell-based, human
Procedure: Blood was drawn from healthy, consented volunteers under a Duke University Institutional Review Board approved protocol and anticoagulated with 3.2% sodium citrate. Whole blood (320 μL) was mixed with anticoagulant (heparin or aptamers) (10 μL) and kaolin (Haemonetics, Niles, Ill.) (10 μL) or CAT PRP reagent (Diagnostica Stago, 0.33 ρM TF final) (10 μL) was added to stimulate clotting. CaCl2 (20 μL) was immediately added to overcome the citrate, the mixture was added to a plain disposable plastic TEG cup (Haemonetics), and the assay was run according to the manufacturer's instructions. Clot formation at 37° C. was measured with a Thromboelastograph Analyzer (Haemonetics, Niles, Ill.) until a stable clot was formed (i.e., a maximum amplitude was reached) or for three hours with the aptamer combinations. The time lag time, α-angle, and maximum amplitude were automatically calculated by the TEG® Analytical Software version 4.2.3 (Haemonetics).
Because kaolin stimulates blood via the intrinsic pathway, it is unlikely that 7S-1 (FVIIa aptamer) would impair clot formation with this type of stimulation; thus, this aptamer was tested in a modified TEG with TF stimulation. CAT platelet rich plasma (PRP) reagent (TF) was diluted to a final concentration of 0.33 ρM TF to stimulate clotting.

[9] = system: clot formation in whole blood; test: TEG of whole blood, coagulation triggered by tissue factor (Example I); format: cell-based; settings: TF; FVIIa aptamer 0.5, FIXa aptamer 1.0, FXa aptamer 1.0 micromolar
Procedure: TEG is a waveform generated from serial measurements of the torque transmitted from a small oscillating cup to the tip of a metal pin inserted into the cup by a 360 microliter sample of blood or plasma added to the cup.
A 360 microliter blood sample has been added to the cup. For 180 minutes after the sample is added, the cup oscillates alternatively clockwise and counterclockwise through an arc of 4° 45′ at a frequency of one oscillation cycle—i. e., one clockwise rotation and one counterclockwise rotation—every 10 seconds. The lower end of the pin is immersed by the sample; the upper end is suspended from a torsion wire. The TEG analyzer records a single measurement of rotation-induced torque after each clockwise rotation and after each counterclockwise rotation of the cup. “The torque of the rotating cup is transmitted to the immersed pin only after fibrin-platelet bonding has linked the cup and [the] pin together. The strength of these fibrin-platelet bonds affects the magnitude of the pin motion, such that strong clots move the pin directly in phase with the cup motion. Thus, the magnitude of the output is directly related to the strength of the formed clot . . . . [If] the clot retracts or lyses, these bonds are broken and the transfer of cup motion is diminished. The rotation movement of the pin is converted by a mechanical-electrical transducer to an electrical signal which can be monitored by a computer” (TEG 5000 User Manual, pp 3-4, 1999-2007)). The computer converts the series of electrical signals into the TEG tracing.

[10] = system: clot formation in whole human blood; test: TEG of dogbone aptamer in whole human blood; format: cell-based
Procedure: Activity of dogbone 4 was tested using thromboelastography (TEG), an assay using whole human blood.

[11] = concentration ten-fold higher than recommended for CPB

For `CC1CNc2c(cccc2S(=O)(=O)N[C@@H](CCCNC(=N)N)C(=O)N2CC[C@@H](C)C[C@@H]2C(=O)O)C1` (some centres unmarked) [argatroban], the “clot propagation and strength (in words)” value [1, 11] is listed as “did not significantly reduce clot propagation and strength”.

For FPRPGGGGNGDFEEIPEEYL [bivalirudin], the Kd [2] is given as ~1.9 nM, the “clot propagation and strength (in words)” value [1, 11] is given as “did not significantly reduce clot propagation and strength” and the in vivo half-life [3] is given as “about 30 minutes”.

In the case of lepirudin, the “time the drug can remain in the circulation” value [4] is listed as > 120 h and the “clot propagation and strength (in words)” value ([1]; 10 micrograms/mL, approximately 1.4 micromolar) is listed as “significantly reduce clot propagation and strength”.

For protamine, the “time to stable clot formation after antidote” value [5] was ≤ 15 min.

B1: 7S-1: FVIIa aptamer, 2'-fluoropyrimidine modified RNA, SEQ ID NO: 5 (nucleic acid)
chain: rGrGrGrArGrGrAfCrGrAfUrGfCrGrGrAfCfUfCfCfUfCfCrArArGfCrGrAfCfCrArAfCrAfUfCrGrGfUfCfCfCrGfUfUfUfCrArGrAfUfCrArAfCrArGrAfCrGrAfCfUfCrGfCfUrGrArGrGrAfUfCfCrGrArGrA
In the case of B1, the “increase of PT clotting time” value ([6]; 4 μM aptamer) is reported as 3 fold, the FVII activity inhibited ([6]; PT, 4 μM) is reported as “greater than 99%” and the ETP ([7]; RNA 1.25 nM) is reported as 1657.33 ± 42.72 nM·min. For the same molecule, the Lag-time ([7]; RNA 1.25 nM) was 1.67 ± 0.19 min, the Peak ([7]; RNA 1.25 nM) was 314.56 ± 14.17 nM and the TTP ([7]; RNA 1.25 nM) was 4.28 ± 0.20 min. The ETP ([7]; RNA 2.5 nM) was 1603.50 ± 28.00 nM·min, the Lag-time ([7]; RNA 2.5 nM) was 2.00 ± 0.17 min and the Peak ([7]; RNA 2.5 nM) was 274.39 ± 29.71 nM. It also gave a TTP ([7]; RNA 2.5 nM) of 5.29 ± 0.55 min, an ETP ([7]; RNA 5 nM) of 1656.20 ± 96.89 nM·min and a Lag-time ([7]; RNA 5 nM) of 3.17 ± 0.19 min. For the same molecule, the Peak ([7]; RNA 5 nM) was 238.68 ± 31.03 nM, the TTP ([7]; RNA 5 nM) was 7.34 ± 0.55 min and the ETP ([7]; RNA 10 nM) was 1339.50 ± 21.15 nM·min. The Lag-time ([7]; RNA 10 nM) was 4.51 ± 0.42 min, the Peak ([7]; RNA 10 nM) was 130.54 ± 14.06 nM and the TTP ([7]; RNA 10 nM) was 11.01 ± 0.79 min. The ETP ([7]; RNA 30 nM) was 1523.50 ± 160.63 nM·min, the Lag-time ([7]; RNA 30 nM) was 6.01 ± 0.44 min and the Peak ([7]; RNA 30 nM) was 199.25 ± 41.13 nM. For the same molecule, the TTP ([7]; RNA 30 nM) was 10.80 ± 1.03 min, the Angle ([8]; RNA 0.12 μM) was 65.2 ± 5.2 deg and the Lag-time ([8]; RNA 0.12 μM) was 4.5 ± 0.6 min. The “Max. Amplitude” value ([8]; RNA 0.12 μM) was 63.0 ± 3.7 mm, the Angle ([8]; RNA 0.25 μM) was 62.4 ± 3.7 deg and the Lag-time ([8]; RNA 0.25 μM) was 5.1 ± 1.2 min. The “Max. Amplitude” value ([8]; RNA 0.25 μM) was 64.0 ± 2.8 mm, the Angle ([8]; RNA 0.50 μM) was 61.9 deg and 61.9 ± 3.3 deg and the Lag-time ([8]; RNA 0.50 μM) was 6.6 min and 6.6 ± 0.8 min. For the same molecule, the “Max. Amplitude” value ([8]; RNA 0.50 μM) was 63.1 mm and 63.1 ± 2.0 mm and the “clot formation (in words)” value [9] was “none of those aptamers prevented clot formation”.

B2: FX/FII dogbone 4: FX/FII dogbone aptamer of reduced size, SEQ ID NO: 22 (nucleic acid)
chain: GUCGAUCACACAGUUCAAACGUAAUAAGCCAAUGUACGAGGCAGACGACAAAGCCCCAGCGAGAUAAUACUUGGCCCCGCU
modifications: listed as RNA, chemistry not given here
With B2 the “activity compared to the free combination of aptamers (in words)” value [10] was “comparable or better activity than the free combination of aptamers” and the “activity compared to the free combination of aptamers (in words)” value ([10]; listed as Dogbone Aptamer 4) was “inhibits clot formation as well as the combination of individual Factor II (R9D-14T) and X (11f7T) aptamers”.
